The values below come from PMC11805909, “Structural basis of inhibition of human NaV1.8 by the tarantula venom peptide Protoxin-I” (Nature Communications, 2025).

This experiment addresses T1, human NaV1.8 α-subunit (human, UniProt Q9Y5Y9 1-1956, M1713V, N-linked glycosylation modelled at Asn 312, 819, 1312, 1328 and 1336; further sites N284 and N288).
T1 construct: a TEV protease site stands between the N-terminal tags and the channel; No TEV cleavage is described in the purification, so the N-terminal tags were probably still on the protein on the grids; VSDI was not resolved in the maps; also called hNaV1.8; apo-hNaV1.8; source: HEK293 (FreeStyle 293-F), transiently co-transfected with β4; not shown: FLAG, N-terminal, kept
The experiment is described as follows: cryo-EM structure; 45 µM ProTx-I incubated 30 min on ice with purified hNaV1.8 in GDN micelles (150 mM NaCl, 25 mM HEPES pH 7.5, 0.006% GDN); excess peptide removed on a 100 kDa MWCO filter; monolayer graphene grids. As to conditions: both partners purified.

B1: Protoxin-I (peptide)
peptide: ECRYWLGGCSAGQTCCKHLVCSRRHGWCVWDGTFS
notes: modelled from the NMR ensemble PDB 2M9L; printed residue numbers (R3, W5, L6, S22, R23, W27, V29, W30, D31, G32, F34) count on the peptide; Disulfide-rich (ICK framework); also called ProTx-I; source: bought: Smartox Biotechnology
Regarding B1, the binding result is “binds”.
